Drawing on article PMC3548508, this text covers stoichiometry N for two substances.

Several values for one entry are separate records, joined by “and”; a condition that tells them apart may be missing. Equal values may be shown once.

As a reminder, the stoichiometry N is a count of units in the complex or per binding partner.

Assay [1] has as its target TraM C-terminal domain (TraM 190-322) from the Enterococcus faecalis conjugative plasmid pIP501 (Enterococcus faecalis (conjugative plasmid pIP501)). In words: cross-linking.
For assay [2], the target named is Selenomethionine-containing TraMΔ as crystallised (TraM 194-322) (Enterococcus faecalis (conjugative plasmid pIP501)). In words: crystal structure.

On to “TraM C-terminal domain (TraM 190-322) from the Enterococcus faecalis conjugative plasmid pIP501 (domain or fragment)”, for which, in assay [1], the stoichiometry N was 2 and 3. Turning to “Selenomethionine-containing TraMΔ as crystallised (TraM 194-322) (domain or fragment)”, the stoichiometry N in assay [2] worked out at 3.
